Measured values: publication PMC8434428

Biological target: Aca2 (anti-CRISPR associated protein 2) from Pectobacterium carotovorum bacteriophage ZF40 (Pectobacterium carotovorum bacteriophage ZF40)
Assay: SEC; final size exclusion run of untagged Aca2 on HiPrep 16/60 Sephacryl S-200 in buffer S [50 mM Tris-HCl (pH 7.9), 500 mM KCl, 10% glycerol]; oligomer judged from the elution volume

Aca2 (anti-CRISPR associated protein 2) from Pectobacterium carotovorum bacteriophage ZF40 (natural protein)
stoichiometry N: 2
